Experimental data taken from patent publication US20050014220A1.

Target: bovine thrombin (bovine) (UniProt P00735)
Assay: cell-based or functional assay

Row | Substance | rate of change in absorbance of the chromogenic substrate S2238 at 405 nm (thrombin-dependent activation of protein C on COS cells) [units/min]
1 | mutated murine thrombomodulin lacking the N-terminal lectin-like domain, expressed on COS cells (from UniProt P15306 17-577) (receptor) | 0.23
2 | wild-type murine thrombomodulin expressed on COS cells (from UniProt P15306 17-577) (receptor) | 0.21
